{
  "source": "patent US20130244255A1",
  "about": "(published 2013)",
  "key": {"[1]": {"biological_target": "T1, GPNMB (CG56972) as expressed by human cell lines (human, UniProt Q14956 23-492)", "T1 construct": "Endogenous or transfected full-length protein on cells (FACS, killing assays) or in cell lysates (immunoprecipitation, blot); also called native GPNMB protein", "T1 sequence": "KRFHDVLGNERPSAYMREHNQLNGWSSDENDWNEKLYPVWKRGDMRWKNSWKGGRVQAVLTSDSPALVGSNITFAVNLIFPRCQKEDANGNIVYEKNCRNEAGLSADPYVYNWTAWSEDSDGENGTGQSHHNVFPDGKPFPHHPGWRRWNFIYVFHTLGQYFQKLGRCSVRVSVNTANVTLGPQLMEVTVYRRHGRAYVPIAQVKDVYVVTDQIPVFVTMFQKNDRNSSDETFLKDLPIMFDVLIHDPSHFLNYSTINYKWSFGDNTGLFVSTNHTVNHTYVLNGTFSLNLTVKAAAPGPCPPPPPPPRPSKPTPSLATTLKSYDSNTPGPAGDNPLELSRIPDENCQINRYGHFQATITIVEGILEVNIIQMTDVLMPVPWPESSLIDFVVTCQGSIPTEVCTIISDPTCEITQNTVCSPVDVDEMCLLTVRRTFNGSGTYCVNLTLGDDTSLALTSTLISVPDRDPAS", "assay": "FACS on U937 cells, antibody 1 ug/mL", "experimental": "(§1) Lymphoma or leukemia derived cells were washed twice with ice-cold FACS buffer and resuspended at 1 million cells per assay tube. […] Cells were then washed 2-3 times and resuspended in 1 mL of ice-cold FACS buffer. R-PE-conjugated goat anti-human antibody at 1:100 dilution was added and cells were incubated on ice for 30 min. Cells were washed 3 times with 1 mL of ice-cold FACS buffer, fixed with 0.5-1 mL of 1% formaldehyde in PBS and analyzed by Flow Cytometry."}, "[2]": {"biological_target": "T1, GPNMB (CG56972) as expressed by human …", "assay": "FACS on Karpas 299 cells, antibody 1 ug/mL", "experimental": "as §1"}, "[3]": {"biological_target": "T1, GPNMB (CG56972) as expressed by human …", "assay": "FACS on SUP-M2 cells, antibody 1 ug/mL", "experimental": "as §1"}, "[4]": {"biological_target": "T1, GPNMB (CG56972) as expressed by human …", "assay": "FACS on M14 cells"}, "[5]": {"biological_target": "T1, GPNMB (CG56972) as expressed by human …", "assay": "FACS on HT144 cells"}, "[6]": {"biological_target": "T1, GPNMB (CG56972) as expressed by human …", "assay": "FACS on G361 cells"}, "[7]": {"biological_target": "T1, GPNMB (CG56972) as expressed by human …", "assay": "FACS on SIG-M5 cells, antibody 1 ug/mL", "experimental": "as §1"}, "[8]": {"biological_target": "T1, GPNMB (CG56972) as expressed by human …", "assay": "FACS on UACC-62 cells"}, "[9]": {"biological_target": "T1, GPNMB (CG56972) as expressed by human …", "assay": "FACS on KG-1 cells, antibody 1 ug/mL", "experimental": "as §1"}, "[10]": {"biological_target": "T1, GPNMB (CG56972) as expressed by human …", "assay": "FACS on D534-MG cells, CR011 10 ug/mL", "experimental": "(§2) Quantitative analysis of CG56972 expression on the surface of cell lines was determined by flow cytometry (FACS). […] Cells were fixed in 1% paraformaldehyde/PBS and examined on a Becton Dickinson FACSCalibur flow cytometer. Data analysis was performed with Becton Dickinson Cell Quest software version 3.3 and the geometric mean fluorescence intensity ratio (GMR) was determined for each cell type."}, "[11]": {"biological_target": "T1, GPNMB (CG56972) as expressed by human …", "assay": "FACS on HUT-102 cells, antibody 1 ug/mL"}, "[12]": {"biological_target": "T1, GPNMB (CG56972) as expressed by human …", "assay": "FACS on AML-193 cells, antibody 1 ug/mL"}, "[13]": {"biological_target": "T1, GPNMB (CG56972) as expressed by human …", "assay": "FACS on XF-498, U-118-MG, SNB-78 and SF-539 cells", "experimental": "as §2"}, "[14]": {"biological_target": "T1, GPNMB (CG56972) as expressed by human …", "assay": "FACS on SNB-78 cells, CR011 10 ug/mL", "experimental": "as §2"}, "[15]": {"biological_target": "T1, GPNMB (CG56972) as expressed by human …", "assay": "FACS on Jurkat cells, antibody 1 ug/mL", "experimental": "as §1"}, "[16]": {"biological_target": "T1, GPNMB (CG56972) as expressed by human …", "assay": "FACS on A2058 cells"}, "[17]": {"biological_target": "T1, GPNMB (CG56972) as expressed by human …", "assay": "FACS on THP-1 cells, antibody 1 ug/mL", "experimental": "as §1"}, "[18]": {"biological_target": "T1, GPNMB (CG56972) as expressed by human …", "assay": "FACS on SR cells, antibody 1 ug/mL", "experimental": "as §1"}, "[19]": {"biological_target": "T1, GPNMB (CG56972) as expressed by human …", "assay": "FACS on SK-Mel 5 cells"}, "[20]": {"biological_target": "T2, Recombinant human GPNMB extra-cellular domain (ECD) with a C-terminus V5-HIS tag (human, UniProt Q14956 23-492)", "T2 construct": "Expressed in HEK293; also called GPNMB-V5His; GPNMB-soluble", "T2 sequence": "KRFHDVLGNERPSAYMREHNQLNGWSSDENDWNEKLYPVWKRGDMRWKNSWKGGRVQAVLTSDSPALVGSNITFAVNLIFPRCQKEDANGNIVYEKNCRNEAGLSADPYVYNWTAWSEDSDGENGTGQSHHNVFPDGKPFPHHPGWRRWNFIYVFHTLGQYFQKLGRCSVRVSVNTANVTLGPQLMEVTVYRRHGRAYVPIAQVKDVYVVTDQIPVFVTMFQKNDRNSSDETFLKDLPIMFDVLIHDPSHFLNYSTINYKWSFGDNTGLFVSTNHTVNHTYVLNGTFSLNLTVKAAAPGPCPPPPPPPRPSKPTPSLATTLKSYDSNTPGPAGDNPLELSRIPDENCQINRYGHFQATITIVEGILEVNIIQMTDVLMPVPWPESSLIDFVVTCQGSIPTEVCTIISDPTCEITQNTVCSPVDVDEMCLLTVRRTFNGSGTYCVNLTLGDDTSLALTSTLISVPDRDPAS", "assay": "Biacore, mAb captured on protein A", "experimental": "Certain Hybridoma cell supernatants (29) were analyzed for binding to GPNMB by BiaCore® 2000 biosensor equipped with a research-grade CM5 sensor chip. A 1:25 dilution of cell supernatant was passed over a protein A surface for 5 min followed by washing the surface for 10 mins. […] GPNMB binding data for each mAb was normalized for the amount of mAb captured on each surface. Normalized, drift corrected responses were also measured. The sensorgrams were fit to a simple 1:1 kinetic model."}, "[21]": {"biological_target": "T1, GPNMB (CG56972) as expressed by human …", "assay": "FACS on EOL-1 cells, antibody 1 ug/mL"}, "[22]": {"biological_target": "T1, GPNMB (CG56972) as expressed by human …", "assay": "FACS on RPMI-7951 cells"}, "[23]": {"biological_target": "T1, GPNMB (CG56972) as expressed by human …", "assay": "FACS on ML-2 cells, antibody 1 ug/mL", "experimental": "as §1"}, "[24]": {"biological_target": "T1, GPNMB (CG56972) as expressed by human …", "assay": "FACS on U87MG cells, CR011 10 ug/mL", "experimental": "as §2"}},
  "data": [
    {"binder": "CR011 mAb 1.15.1 (IgG2) (antibody, also called CR011.1.15.1; CR011 IgG2) heavy: QVQLQESGPGLVKPSQTLSLTCTVSGGSISSFNYYWSWIRHHPGKGLEWIGYIYYSGSTYSNPSLKSRVTISVDTSKNQFSLTLSSVTAADTAVYYCARGYNWNYFDYWGQGTLVTVSSASTKGPSVFPLAPCSRSTSESTAALGCLVKDYFPEPVTVSWNSGALTSGVHTFPAVLQSSGLYSLSSVVTVPSSNFGTQTYTCNVDHKPSNTKVDKTVERKCCVECPPCPAPPVAGPSVFLFPPKPKDTLMISRTPEVTCVVVDVSHEDPEVQFNWYVDGVEVHNAKTKPREEQFNSTFRVVSVLTVVHQDWLNGKEYKCKVSNKGLPAPIEKTISKTKGQPREPQVYTLPPSREEMTKNQVSLTCLVKGFYPSDIAVEWESNGQPENNYKTTPPMLDSDGSFFLYSKLTVDKSRWQQGNVFSCSVMHEALHNHYTQKSLSLSPGK VL: not shown", "values": [
      {"measurement": "Geo Mean Ratio", "setting": "[1]", "value": 17.3, "unit": "ratio"},
      {"measurement": "Geo Mean Ratio", "setting": "[2]", "value": 10.7, "unit": "ratio"},
      {"measurement": "Geo Mean Ratio", "setting": "[3]", "value": 4.8, "unit": "ratio"},
      {"measurement": "Geo Mean Ratio (relative to isotype)", "setting": "[4]", "value": 16.1, "unit": "ratio"},
      {"measurement": "Geo Mean Ratio (relative to isotype)", "setting": "[5]", "value": 7.4, "unit": "ratio"},
      {"measurement": "Geo Mean Ratio (relative to isotype)", "setting": "[6]", "value": 8, "unit": "ratio"},
      {"measurement": "Geo Mean Ratio", "setting": "[7]", "value": 2.9, "unit": "ratio"},
      {"measurement": "Geo Mean Ratio (relative to isotype)", "setting": "[8]", "value": 5.5, "unit": "ratio"},
      {"measurement": "Geo Mean Ratio", "setting": "[9]", "value": 6.9, "unit": "ratio"},
      {"measurement": "CR011 Fold Shift (GMR)", "setting": "[10]", "value": 2.3, "unit": "fold"},
      {"measurement": "Geo Mean Ratio", "setting": "[11]", "value": 1, "unit": "ratio"},
      {"measurement": "Geo Mean Ratio", "setting": "[12]", "value": 1.8, "unit": "ratio"},
      {"measurement": "surface staining, fold above isotype control mAb background", "setting": "[13]", "value": "≥ 1.5", "unit": "fold"},
      {"measurement": "CR011 Fold Shift (GMR)", "setting": "[14]", "value": 8.6, "unit": "fold"},
      {"measurement": "Geo Mean Ratio", "setting": "[15]", "value": 14.7, "unit": "ratio"},
      {"measurement": "Geo Mean Ratio (relative to isotype)", "setting": "[16]", "value": 4.1, "unit": "ratio"},
      {"measurement": "Geo Mean Ratio", "setting": "[17]", "value": 6.1, "unit": "ratio"},
      {"measurement": "Geo Mean Ratio", "setting": "[18]", "value": 7.1, "unit": "ratio"},
      {"measurement": "Geo Mean Ratio (relative to isotype)", "setting": "[19]", "value": 5.7, "unit": "ratio"},
      {"measurement": "Kd", "setting": "[20]", "value": 52, "unit": "nM"},
      {"measurement": "koff", "setting": "[20]", "value": 0.000855, "unit": "s⁻¹"},
      {"measurement": "kon", "setting": "[20]", "value": 16500, "unit": "M⁻¹ s⁻¹"},
      {"measurement": "Geo Mean Ratio", "setting": "[21]", "value": 1, "unit": "ratio"},
      {"measurement": "Geo Mean Ratio (relative to isotype)", "setting": "[22]", "value": 6, "unit": "ratio"},
      {"measurement": "Geo Mean Ratio", "setting": "[23]", "value": 2.1, "unit": "ratio"},
      {"measurement": "CR011 Fold Shift (GMR)", "setting": "[24]", "value": 1.5, "unit": "fold"}
    ]}
  ]
}
